Data as given in US20050282743A1, “Molecular interactions in cells” (Arbor Vita Corporation, priority 2001, published 2005).

How the values were obtained:
Experiment in all cases: G' assay
[1] = biological target: T1, GST-DVL2 PDZ domain 1 (Homo sapiens (Human)), O14641
T1 chain: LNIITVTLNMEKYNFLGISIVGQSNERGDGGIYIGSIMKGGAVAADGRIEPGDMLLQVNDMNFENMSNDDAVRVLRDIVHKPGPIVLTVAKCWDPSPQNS

[2] = biological target: T2, GST-MUPP1 PDZ domain 1 (Homo sapiens (Human)), O75970
T2 chain: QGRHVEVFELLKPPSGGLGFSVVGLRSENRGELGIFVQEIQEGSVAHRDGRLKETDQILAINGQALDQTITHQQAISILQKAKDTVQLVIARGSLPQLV

[3] = biological target: T3, GST-MUPP1 PDZ domain 8 (Homo sapiens (Human)), O75970
T3 chain: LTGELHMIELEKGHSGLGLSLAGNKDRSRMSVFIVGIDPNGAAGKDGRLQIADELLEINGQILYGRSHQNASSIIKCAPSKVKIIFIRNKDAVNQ

[4] = biological target: T4, GST-SYNTENIN PDZ domain 1 (Homo sapiens (Human)), O00560
T4 chain: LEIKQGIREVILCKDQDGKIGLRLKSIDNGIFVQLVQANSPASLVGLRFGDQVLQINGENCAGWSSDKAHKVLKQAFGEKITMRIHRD

[5] = biological target: T5, GST-KIAA0147 PDZ domain 4 (Homo sapiens (Human)), Q14160
T5 chain: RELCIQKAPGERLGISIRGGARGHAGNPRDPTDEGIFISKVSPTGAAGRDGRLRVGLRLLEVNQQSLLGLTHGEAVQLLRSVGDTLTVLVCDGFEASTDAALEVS

[6] = biological target: T6, GST-EZRIN Binding Protein 50 PDZ domain 2 (Homo sapiens (Human)), O14745
T6 chain: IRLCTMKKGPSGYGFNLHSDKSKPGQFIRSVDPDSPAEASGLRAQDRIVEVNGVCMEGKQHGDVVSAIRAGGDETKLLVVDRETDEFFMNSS

[7] = biological target: T7, GST-novel PDZ gene PDZ domain 1 (Homo sapiens (Human)), Q9H5P4
T7 chain: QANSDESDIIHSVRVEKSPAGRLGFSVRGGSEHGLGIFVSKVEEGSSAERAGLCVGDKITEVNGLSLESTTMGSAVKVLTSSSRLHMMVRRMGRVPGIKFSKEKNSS

[8] = biological target: T8, GST-KIAA0380 PDZ domain 1 (Homo sapiens (Human)), O15085
T8 chain: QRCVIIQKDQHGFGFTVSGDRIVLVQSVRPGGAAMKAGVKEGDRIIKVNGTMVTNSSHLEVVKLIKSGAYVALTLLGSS

[9] = biological target: T9, GST-LIMK1 PDZ domain 1 (Homo sapiens (Human)), P53667
T9 chain: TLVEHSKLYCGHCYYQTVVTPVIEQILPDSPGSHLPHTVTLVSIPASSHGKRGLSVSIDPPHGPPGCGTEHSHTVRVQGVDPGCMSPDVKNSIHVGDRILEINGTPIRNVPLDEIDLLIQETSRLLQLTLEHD

[10] = biological target: T10, GST-NeDLG PDZ domain 1 (Mus musculus (Mouse)), P70175
T10 chain: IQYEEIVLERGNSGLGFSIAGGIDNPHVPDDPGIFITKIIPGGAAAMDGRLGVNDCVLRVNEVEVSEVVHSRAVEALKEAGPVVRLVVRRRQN

[11] = biological target: T11, GST-NeDLG PDZ domain 2 (Rattus norvegicus (Rat)), Q62936
T11 chain: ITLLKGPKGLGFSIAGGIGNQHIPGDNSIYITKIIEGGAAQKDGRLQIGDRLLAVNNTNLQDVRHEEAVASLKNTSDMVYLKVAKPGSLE

[12] = biological target: T12, GST-PSD95 PDZ domain 3 (Homo sapiens)
T12 chain: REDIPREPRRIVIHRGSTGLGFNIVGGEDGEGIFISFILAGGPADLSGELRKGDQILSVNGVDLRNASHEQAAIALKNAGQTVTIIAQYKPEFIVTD

[13] = biological target: T13, GST-PTN-4 PDZ domain 1 (Homo sapiens (Human)), P29074
T13 chain: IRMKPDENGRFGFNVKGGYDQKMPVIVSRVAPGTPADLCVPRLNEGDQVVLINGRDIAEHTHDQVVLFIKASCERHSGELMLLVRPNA

[14] = biological target: T14, GST-Atrophin-1 Interacting Protein PDZ domain 6 (Rattus norvegicus (Rat)), O88382
T14 chain: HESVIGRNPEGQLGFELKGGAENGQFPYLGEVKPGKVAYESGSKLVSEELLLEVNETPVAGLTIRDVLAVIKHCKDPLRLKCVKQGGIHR

[15] = biological target: GST-CARD14 PDZ domain 1 (Homo sapiens (Human)), Q9BXL6
Sequence of GST-CARD14 PDZ domain 1 (Homo sapiens (Human)), Q9BXL6 (Q9BXL6 565-664): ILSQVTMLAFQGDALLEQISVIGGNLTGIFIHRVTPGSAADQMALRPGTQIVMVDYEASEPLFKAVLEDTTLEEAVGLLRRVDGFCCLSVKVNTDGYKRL

[16] = biological target: T15, GST-DLG5 PDZ domain 2 (Homo sapiens (Human)), Q8TDM6
T15 chain: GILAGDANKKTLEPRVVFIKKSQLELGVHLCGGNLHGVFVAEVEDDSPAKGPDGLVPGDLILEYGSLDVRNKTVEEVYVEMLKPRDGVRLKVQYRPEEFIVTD

[17] = biological target: T16, GST-KIAA0340 PDZ domain 1 (Homo sapiens (Human)), Q86UR5
T16 chain: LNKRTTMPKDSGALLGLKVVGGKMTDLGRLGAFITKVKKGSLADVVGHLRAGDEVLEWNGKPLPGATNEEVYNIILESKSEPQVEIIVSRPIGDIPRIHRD

[18] = biological target: GST-Unnamed Protein PDZ domain 2 [GST: P08515]
Sequence of GST-Unnamed Protein PDZ domain 2 [GST: P08515] (P08515 whole entry, the tested form may be a part): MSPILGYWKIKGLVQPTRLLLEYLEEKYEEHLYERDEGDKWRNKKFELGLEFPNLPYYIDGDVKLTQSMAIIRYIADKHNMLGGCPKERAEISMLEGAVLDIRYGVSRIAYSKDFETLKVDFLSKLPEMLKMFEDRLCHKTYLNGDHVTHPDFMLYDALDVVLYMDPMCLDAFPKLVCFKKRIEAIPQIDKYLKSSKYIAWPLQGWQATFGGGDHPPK

[19] = biological target: GST-KIAA1222 PDZ domain 1 (Rattus norvegicus (Rat)), O35867
Sequence of GST-KIAA1222 PDZ domain 1 (Rattus norvegicus (Rat)), O35867 (O35867 499-598, tags or fused parts left off): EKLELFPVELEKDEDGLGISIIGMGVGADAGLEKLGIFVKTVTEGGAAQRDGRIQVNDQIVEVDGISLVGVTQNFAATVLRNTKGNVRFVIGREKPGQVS
Note: key of the grades not given here.

ELLQFCRTPNPALKNGQYWV (modifications not checked) [CSPG4 (chondroitin sulfae proteoglycan 4, melanoma-associated)]
Classification [1]: 5 A450 class
Classification [2]: 2 A450 class
Classification [3]: 2 A450 class
Classification [4]: 2 A450 class

PYSELNYETSHYPASPDSWV (modifications not checked) [catenin - delta 2]
Classification [5]: 1 A450 class

PIPAGGCTFSGIFPTLTSPL (modifications not checked) [KIA 1481]
Classification [6]: 2 A450 class
Classification [7]: 1 A450 class

TQGFPGPATWRRISSLESEV (modifications not checked) [NMDA Glutamate Receptor 2C (cysteine-free)]
Classification [8]: 1 A450 class
Classification [9]: 1 A450 class
Classification [10]: 2 A450 class
Classification [11]: 5 A450 class
Classification [12]: 2 A450 class
Classification [13]: 2 A450 class

QISPGGLEPPSEKHFRETEV (modifications not checked) [TAX]
Classification [5]: 1 A450 class
Classification [9]: 1 A450 class
Classification [11]: 5 A450 class
Classification [12]: 1 A450 class
Classification [13]: 2 A450 class

HDFRRAFKKILARGDRKRIV (modifications not checked) [alpha-2A Adrenergic receptor]
Classification [14]: 1 A450 class
Classification [15]: 1 A450 class
Classification [16]: 1 A450 class
Classification [17]: 1 A450 class
Classification [3]: 1 A450 class
Classification [18]: 1 A450 class

AWDDSARAAGGQGLHVTAL (modifications not checked) [LPAP]
Classification [6]: 4 A450 class
Classification [18]: 3 A450 class

KTMPAAMYRLLTAQEQPVYI (modifications not checked) [MINT-1]
Classification [1]: 2 A450 class
Classification [19]: 1 A450 class
Classification [2]: 1 A450 class
Classification [4]: 3 A450 class

ILNSIQVMRAQMNQIQSVEV (modifications not checked) [ephrin B2]
Classification [14]: 1 A450 class
Classification [15]: 1 A450 class
Classification [16]: 1 A450 class
Classification [5]: 2 A450 class
Classification [17]: 2 A450 class
Classification [11]: 2 A450 class
Classification [4]: 1 A450 class
Classification [7]: 2 A450 class

VPGALDYAAFSSALYGESDL (modifications not checked) [a-actinin 2]
Classification [8]: 1 A450 class
Classification [7]: 2 A450 class

VGTLLLERVIFPSVKIATLV (modifications not checked) [AdenoE4 typ9]
Classification [19]: 1 A450 class
Classification [10]: 1 A450 class
Classification [11]: 5 A450 class
